Data as given in the DeepSol protein solubility set.

Assay: soluble on expression in E. coli; label from the status in PepcDB or PDB records

Sequence	soluble on expression in E. coli
MKIIYCITKADNGGAQTHLIQLANHFCVHNDVYVIVGNHGPMIEQLDARVNVIIIEHLVGPIDFKQDILAVKVLAQLFSKIKPDVIHLHSSKAGTVGRIAKFISKSKDTRIVFTAHGWAFTEGVKPAKKFLYLVIEKLMSLITDSIICVSDFDKQLALKYRFNRLKLTTIHNGIADVPAVKQTLKSQSHNNIGEVVGMLPNKQDLQINAPTKHQFVMIARFAYPKLPQNLIAAIEILKLHNSNHAHFTFIGDGPTLNDCQQQVVQAGLENDVTFLGNVINASHLLSQYDTFILISKHEGLPISIIEAMATGLPVIASHVGGISELVADNGICMMNNQPETIAKVLEKYLIDSDYIKMSNQSRKRYLECFTEEKMIKEVEDVYNGKSTQ	not soluble
SSVLLRPILPEDEPKHASFISQVSHDDLYKRFFSEVGEFNHEALANFTQIDYDREMAFVATKQIDGEEIIIAVVRALSDPNHTNTEFAVLVRSDLKGLGLGKILMEKIIRYCQSIGIKVMTGMTMPANHGMIGLAQHLGFSVDIQMSDGVVDMFLEL	not soluble
MGSDKIHHHHHHMEKQEIIEKLVELKDRLIEDVYQAYSRNTSDYGHERYNAWKKSVTKFLNQYIPNEVQRFNEKANPTYGVFLRRNGMSYHDFFWKTDGSAMNAYLESLILDIQNDDYDFTPINKEVQDVKTIPEAKSKKVLIVHGHDEAAKYRTEAFLRKHGFDPIILHLNASKGDTIIKKLERLAEGVGYGIVLYTPDDMGETKVKAVQHELQPRARQNVVFEHGYLMGLIGRPNVAAIVEGYVEKPSDIDGVVYIPSSNWEIDLLRELHEAGYPINPANL	not soluble
MSLIKMQVWKKLFAKSPFKPLIRHAEVVVQTVETLEKALDSWARGDYENMKEYAKKVDDLEDIADKIKSELRDSITSKLLMPVQRTDILEYLHMQDKIADAAEDTAKWLLIKRNLDSIPNDIKDIILKMGKESIKAAKLVYEAIKQLDNVLESGFAEKEIKKEYKIIKQIEEVESKIDGLDSKLMEIVFTSELDWKDGLYILNIARTLSNISDKAKDTAERIRVLMNKEGHHHHHH	not soluble
MGHHHHHHSHMCVARVYHGWLFEGLGRDKAEELLQLPDTKVGSFMIRESETKKGFYSLSVRHRQVKHYRIFRLPNNWYYISPRLTFQCLEDLVNHYSEVADGLCCVLTTPCLTQSTAAPAVRASSSPVTLRQKTVDWRRVSRLQEDPEGTENPLGVDESLFSYGLRESIASYLSLTSEDNTSFDRKKKSISLMYGGSKRKSSFFSSPPYFED	soluble
MRWNLDPTHTSVEFAVRHMMIATVRGTMGLKEGYVETDETGKPIRVEARLDAASIHTGVADRDNHLRSPDFLDVANHPEIVFRSEKITPLGEGRYRVEGEVTIRGVTRPLAFEVETHGPAKDPWGNERIAAHFEGKLNRKDFGLTWNMPLETGGLLVGEEVRFSVDTQAVKAKEAVAQ	soluble
MKLERVLPFARSLLQTAVKEGDYAVDATLGNGHDTCFLAEIVGDNGKVFGFDIQKEAIESSTTRLKEKELFERTVLVHDSHDTLLSILPEDAKGKVTGAIFNLGYLPGGDKHIVTKPNSTISAIEQLLEVMAPEGIIVLVIYHGHPEGQVERDAVLKFAEELDQKQAHVLRYGFINQQNNPPFIVAIEKRLEHHHHHH	soluble
MQRGLLVLHASAIAAAGKGAIFMGDKGAGKSTTASALIRAGHELLTDDVVALDLARPDAPMIVAGFPQIKLAADAAAAISLGRAEVRPQVHPAIEKMQHRLHGAFSGGMVPATRIYVLERGLEHHHHHH	not soluble
MGSDKIHHHHHHMTKVAHLTSVHSRYDIRIFRKQCRTLSQYGYDVYLVVADGKGDEVKDGVRIVDVGVLSGRLNRILKTTRKIYEQALALGADVYHFHDPELIPVGLRLKKQGKQVIFDSHEDVPKQLLSKPYMRPFLRRVVAVLFSCYEKYACPKLDAVLTATPHIREKFKNINGNVLDINNFPMLGELDAMVPWASKKTEVCYVGGITSIRGVREVVKSLECLKSSARLNLVGKFSEPEIEKEVRALKGWNSVNEHGQLDREDVRRVLGDSVAGLVTFLPMPNHVDAQPNKMFEYMSSGIPVIASNFPLWREIVEGSNCGICVDPLSPAAIAEAIDYLVSNPCEAAALGRNGQRAVNERYNWDLEGRKLARFYSDLLSKRDSI	not soluble
MEYTSIADTGIEASRIGLGTWAIGGTMWGGTDEKTSIETIRAALDQGITLIDTAPAYGFGQSEEIVGKAIKEYMKRDQVILATKTALDWKNNQLFRHANRARIVEEVENSLKRLQTDYIDLYQVHWPDPLVPIEETAEVMKELYDAGKIRAIGVSNFSIEQMDTFRAVAPLHTIQPPYNLFEREMEESVLPYAKDNKITTLLYGSLCRGLLTGKMTEEYTFEGDDLRNHDPKFQKPRFKEYLSAVNQLDKLAKTRYGKSVIHLAVRWILDQPGADIALWGARKPGQLEALSEITGWTLNSEDQKDINTILENTISDPVGPEFMAPPTREEIPG	soluble
MSLKLSNERAEWQAQMKKSVISEERQRLARDLHDAVSQQLFAISMMTSAVLEHVKDADDKTVKRIRMVEHMAGEAQNEMRALLLHLRPVTLEGKGLKEGLTELLDEFRKKQPIDIEWDIQDTAISKGVEDHLFRIVQEALSNVFRHSKASKVTVILGIKNSQLRLKVIDNGKGFKMDQVKASSYGLNSMKERASEIGGVAEVISVEGKGTQIEVKVPIFPEEKGENERDSSIIDEGHHHHHH	soluble
MKYVIGIDGGGSKTHMKISTLDYKVLLEVFKGPSNINSSTKEEVKRVLQELIMEGLGKLGQSLEECSAICIGTAGADRTEDKSIIEDMIRSLGYMGKIIVVNDAEIALAGGIEKREGIIVISGTGSICYGRNKEGRSARSGGWGHIIGDEGSGYDIGIKAIKAALKSFDKRGEKTILEGDILDFLKLKSHEDLINYIYRSGVTKKEIASLTRVVNSAYIKGDLVSKRILKEAARELFLSVKAVVEVLSMQNKKVVLTTAGGVINNINYLYDEFRKFLNLNYPKVKIISMKNDSAFGAVIIARSECDMAGDPLEHHHHHH	not soluble
QTVQSTSKGSDYIVAVTACTTGIAHTYMAEEALKKKAAEMGVGIKVETNGASGVGNKLTSSDIARAKGVIIAADKAVEMDRFDGKPLVSRPVADGIKKSEDLINIILDNKAQTY	not soluble
MGSDKIHHHHHHAQDNPFKPEWFVSGGINGVTALNGSANNILGGKVSGGVWLNKIIGLRVDAEAGNVWLKGGYNAVTVGAGADILVNLMKNYTDEDRKFRLNAIFGLGYNYYSFGDDYPRLSKTNTMSGNFSLQAAFRLNSHLSIFAEPGIKISTKFYDIENKDDVFAGGMMTVGVIYKF	not soluble
MAHHHHHHMKLQKQQQQKRMTGLKEKRIACRLTYIWLSGRDSHHDIRSKDRTAYLTTEEVAKHPKELLADGIFPVWNFDGSSTKQVCGADTEILLNPVNAYHCCLPRLSTTVPWILVLAECCLPNGEPTNDNSRAVARRIFERAPEEHPWFGMEQEFFLIKDGHPYGWPPRGFPAPQGPYYCSTGCLCVHGRRYVDLHYEVCLQMGLNISGTNAEVAPGQWEFQVGPCEGIEMGDQLTVARWVLLRILEDDGLDADYRAKPIRGEWNGSGLHTNFSTASTRNENGLSVIYEYVERLKKTISKDIVLYGAENNERLTGKYETSKPNEVTAGVGTRGTSIRIPNAVAAERKGYMEDRRPAGDADPYLVSARLFASCVCIESPELDLISSFHERSWMKFGDLS	soluble
MSLKNQWNNILSIGEKVLNGEKITADEALTLSKSNGSDIFLLCSFANKLREKFNGNHVDLCSVINAKSGNCSEDCAFCAQSAHHKANVSCYPLLNEDKILEMAKQREAYGARHCDIATSGLGYTGDEKDFQTILKAFKKMKENTNLKLCACLGTLTEKAMNSLAAVGVERYNHNLETAKSFYKNIVSTHGYDERIKTINYAKNAKMEVCSGMIVGLGETMEQRIEHALLLRDLNVDAVPVNILNPVKGTKLENAKPLSPMEIIKTFAIIRFILPDKIIRYAGGREKNLRSLQPLGFLSGLNGMLIGNYLTTNGQSVNDDFNMLKDLELEYEGHHHHHH	soluble
MRETRMVYPVFPGETNHYGTLFGGTVLAWMDQAAFVAATRHARKKVVTVHADAVDFKRPVPLGAIVELVARLKEVGRTSMRVEVEMWVEPVKEGEEAYLAARGGFVLVAVDERGRPSPVPPLEGGEAHAPHGP	soluble
MDDEEKDMADSFQNEVPAARVNIKLDLHTGNAKKKVELPLKLLAVGDYSNGKEQRPLSERDKVDINKNNFNSVMAEFSPAVNLTVEDTLNGNGNEQNIALEFKSLKDFEPEQVAKNIPQLRVLLAMRNLLRDLKSNLLDNATFRRELENILKDPTLSSELRDELAKIAPQENV	soluble
MGSDKIHHHHHHMPSIRVVNLKKYFGKVKAVDGVSFEVKDGEFVALLGPSGCGKTTTLLMLAGIYKPTSGEIYFDDVLVNDIPPKYREVGMVFQNYALYPHMTVFENIAFPLRARRISKDEVEKRVVEIARKLLIDNLLDRKPTQLSGGQQQRVALARALVKQPKVLLFDEPLSNLDANLRMIMRAEIKHLQQELGITSVYVTHDQAEAMTMASRIAVFNQGKLVQYGTPDEVYDSPKNMFVASFIGNPPTNFLRDFSVSVENKQTILKRDDVIIKLPEPVDVKLKEVVVGIRPEHCRISRERVENSIPGVVYVVEPLGRDIIVNVKTEKGEIIKVFGDTGKAPQPGENVFLVPDLRKIHLFNPETEETIL	not soluble
MDLNFKELAEAKKDAILKDLEELIAIDSSEDLENATEEYPVGKGPVDAMTKFLSFAKRDGFDTENFANYAGRVNFGAGDKRLGIIGHMDVVPAGEGWTRDPFKMEIDEEGRIYGRGSADDKGPSLTAYYGMLLLKEAGFKPKKKIDFVLGTNEETNWVGIDYYLKHEPTPDIVFSPDAEYPIINGEQGIFTLEFSFKNDDTKGDYVLDKFKAGIATNVTPQVTRATISGPDLEAVKLAYESFLADKELDGSFEINDESADIVLIGQGAHASAPQVGKNSATFLALFLDQYAFAGRDKNFLHFLAEVEHEDFYGKKLGIFHHDDLMGDLASSPSMFDYEHAGKASLLNNVRYPQGTDPDTMIKQVLDKFSGILDVTYNGFEEPHYVPGSDPMVQTLLKVYEKQTGKPGHEVVIGGGTYGRLFERGVAFGAQPENGPMVMHAANEFMMLDDLILSIAIYAEAIYELTKDEEL	soluble
NSDALVSIQTSKLPKTAYTATDFIKTAQYKYNHIVSNTVYELDLFQNAVSYADFAVLELELNLANNRDQQIFDSFINPAVTAYEKLGNSLGLFSNLQLDQYVDDTHYLLGYPLLKREKTSY	not soluble
MEDFGRQRPYGDGGMQIQPYHGNQGGDFRSYSASYGTRENNIYDVKKEKSIARSKSWGITDPELQRKKRVASYKMYGVEGKVKGSFRNSFRWLKQRYTQVVYGWW	not soluble
SREEFEQILQERNELKAKVFLLKEELAYFQRELLTDHRVPSLLLEAMKVAVRKQRKKIKAKMLGT	soluble
MNIRCARVDDLMSMQNANLMCLPENYQMKYYFYHALSWPQLSYIAEDHKGNVVGYVLAKMEEDPGEEPHGHITSLAVKRSYRRLGLANKMMDQTARAMVETYNAKYVSLHVRVSNRAALNLYKNTLKFEIVDTEPKYYADGEDAYAMRRDLAKWAEERNIEPADREAYTTAKTTDDKKKNRS	not soluble
